Molecular target: MSH2;MSH3 (Homo sapiens;Homo sapiens, UniProt P43246;P20585 1-934;1-1137, |)
Assay: gel filtration; 1:1:1 OGG1, MSH2-MSH3, DNA; MSH2-MSH3-DNA peak; 10 mM HEPES pH 8.1, 110 mM NaCl, 1 mM DTT, 0.1 mg/ml BSA, 10% glycerol, 0.25% inositol, 5 mM Mg2+, 2 mM ATP, 2 mM ADP; on ice (EMSA 10 min, gel at 4 °C; footprint binding 15 min, DNase I at 37 °C); 25 nM DNA
Details: protein: recombinant;recombinant; tags: ;His; copies: 1;1

B1: CAG-duplex (80) with one 8-oxo-G (dsDNA)
DNA 1: CAAGCACGTTGACTACCGTCCAGCAGCAGCAGCAGCAGCAGCAGCAGCAGCAGCAGCAGTTTGAGGCAGAGTCCGAACAC
DNA 2: GTGTTCGGACTCTGCCTCAAACTGCTGCTGCTGCTGCTGCTGCTGCTGCTGCTGCTGCTGGACGGTAGTCAACGTGCTTG
modifications: one 8-oxo-G (stated position 17, exact G not marked in text); complement not given
  binding result: binds
